Assay results reported in the nanobody polyreactivity screen of Harvey et al. (2022).

Test: yeast display, Sf9 membrane polyspecificity reagent, FACS + sequencing; frameworks hold sequencing errors
Summary of the method: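 In a synthetic yeast display library (Saccharomyces cerevisiae BJ5465), nanobody expression was induced with galactose for 36–48 hours. FACS gates were set low and high (top ~1%) using anti-HA fluorescence for expression and streptavidin fluorescence for binding of the Sf9 membrane reagent. Each polyreactivity label is drawn from the gate of origin.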

Sequence | polyreactivity (PSR sort gate)
QVQLVESGGGLVQGGGSLRLSCAASGINFRSYAMGRYRQAPGKERALVAAISWSGGSTYYADSVKGRFTISRDNAKNTVYLQMNSLKPDDTAVYYCAAKVRFSYGRGYDYWGQGTQVTVSS | high polyreactivity
QVQLVESGGGLVQGGGSLRLSCAASGRIFLRNAMGSYRQAPGKERELVATITSRGCSTYYADSVKGRFTISRDNAKNTVYLQMNSLKPEDTAVYYCAAYPEYVSGAWYDYWGQGTQVNVSS | low polyreactivity
QVQLVESGGGLVQGGGSLRLSCAASGRILYSYAMGWYRQAPGKERELVAAISWRGGPTYYADSVKGRFTISRDNAKNTVYLQLNSLKPEDTAVSNCAPEFYDHPWMYDYWGQGTQVTVSS | low polyreactivity
QVQLVESGGGLVQGGGSLRLSCAASGSNLQINAMGWYRQAPGKERELVAANDWGGGDTYYADSVKGRFTISRDNAKNTVYVQMISLKPEDTAVYYCAAEGVTWYLWDFYDIYGYWGQGTQVNVSS | high polyreactivity
QVQLVESGGGLVQGGGSLRLSCADSGRTSDGYPMRWYRQATGKERELVAVITEGGGDTYYADSVKGRFTISRDHSKNTVYLKMNSLKPEDSAVYYCNAVEGSRLTYDYWGQGTQVTVSS | low polyreactivity
QVQLVESGGGLVQPGGSLRISCAASGSTFEYYAMGWYRQAPGKERELVAAITGSGGSTNYADSVKGRFTISRDNAKNTVYLQMNSLKPEDTAVYYCAADVYDAGVRYDYWGQGTQVTVSS | high polyreactivity
QVQLVESGGGLVQPGGSLRLSCAASGFTFYTYAMGWYRQAPGKERELVATISSGGRTNYADSVKGRFTISRDNAKNTVYLQKNSLKPEDTAVYYCNIRLRGGAVRFDSWGQGTQVTVSS | low polyreactivity
QVQLVESGGGLVQPGGSLRLSCAASGRIFYRYAMGWYRQAPGKERELVAAITARGGSTYYADSVKGRFTISRDNAKNTVYLQMNCLKPEDTAVYYCNKLLSNPYYPSYDYWGQGTQVTVSS | high polyreactivity
QVQLVESGGGLVQPGGSLRLSCAASGRSFFGYPMGWYRQAPGKERELVATISGSGASTYYADSVKGRFTISRDNAKNTVYLQMNSLKPEDTAVYYFAARYVTNRHSRYYYWGQGTQVTVSS | high polyreactivity
QVQLVESGGGLVQPGGSLRLSCAASGRTLHYNVMGWYRQAPGKEREFVAAITKSGGITYYADSVKGRFTISRDNAKNTVYLQMNSLKPEETAVDYCAADSPSWSWRISWSRYDYWGQGTQVTVSS | low polyreactivity
QVQLVESGGGLVQPGGSLRLSCAASGSIFAWYVMGWYRQAPGKERELVAGIDTSGGTTFYADSVKGRFTISRDNAKNTVYVQMNSLKPEDTAVYYCAADTWYRGPWEFDYWGQGTQVTVSS | low polyreactivity
QVQLVESGGGLVQPGGSLRLSCAASGYTSSPYAMGWYRQAPGKERELVAGISSGGSTYADSVKGRFTISRDNAKNTVYLQMISLKPEDTAVYYCADVWYYWTFEFDYWGQGTQVTVSS | high polyreactivity
QVQLVESGGGLVQPGGSLRLSCSASGRIFDNYAMGWYRQAPGKEREFVARITSSGGSTYYADSVKGRFTISRDYAKNTVYLQMYSLKPEDTAVYYCAKRGWSSYCRYDSWGQGTQVTVSS | high polyreactivity
QVQLVESGGGLVQPGGSLRLSSAASGITFPDYAMGWYRKAPGKERELVATITSSGGRTYYAHSVKGRFTISRDNAKNTVYLQMKSLKTEDTAVYYCAARRAYIRTLYYWGQGTQVTVSS | high polyreactivity
QVQLVESGGGLVQPGGSLRLSWAASGSIFVGYAMGWYRQAPGKERELVAAISTRGGSTYYADSVKGRFTISRDNAKNTVYLQINSLKPEDTAVYYCAADYLDSTYGYVFGWDDYWGQGTLVTVSS | low polyreactivity
QVQLVESGGGLVQPGGSLSLSCAASGFTFTYYAMGWYRQAPGKEMELVAAISWSGDSTYYADSVKGRFTISRDNAKNNVYLQMNSLKPEDSAVYYCGSEYSHTYDYWGQGTLVTVSS | low polyreactivity
